1 molecule from US10919943B2, “Mutant proteins enabling agrochemical control of plant gene expression” (The Regents of the University of California, priority 2016, dated 2021) can be followed below.

This assay concerns the target T1, wild type HAB1 (Arabidopsis thaliana, UniProt O49686+Q9CAJ0, A160V/F108A/F159V/K59R/M158I/S122G/T162D/V81I/Y58H).
T1 construct: expressed in transfected cells
T1 sequence (Q9CAJ0 4-511): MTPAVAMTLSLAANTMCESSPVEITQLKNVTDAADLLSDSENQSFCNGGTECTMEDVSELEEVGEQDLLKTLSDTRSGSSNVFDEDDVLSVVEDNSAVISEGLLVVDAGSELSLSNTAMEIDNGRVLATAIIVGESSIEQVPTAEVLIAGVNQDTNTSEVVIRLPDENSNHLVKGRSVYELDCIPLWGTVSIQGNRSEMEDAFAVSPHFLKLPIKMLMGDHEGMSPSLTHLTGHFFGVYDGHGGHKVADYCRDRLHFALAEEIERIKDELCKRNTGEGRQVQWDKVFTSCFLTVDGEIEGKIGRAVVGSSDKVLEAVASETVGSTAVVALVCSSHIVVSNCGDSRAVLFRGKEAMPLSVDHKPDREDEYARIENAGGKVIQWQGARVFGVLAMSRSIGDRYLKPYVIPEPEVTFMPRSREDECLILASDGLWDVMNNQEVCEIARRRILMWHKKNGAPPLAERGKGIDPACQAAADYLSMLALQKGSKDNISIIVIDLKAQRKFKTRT
T1 sequence (O49686 1-191 Y58H/K59R/V81I/F108A/S122G/M158I/F159V/A160V/T162D): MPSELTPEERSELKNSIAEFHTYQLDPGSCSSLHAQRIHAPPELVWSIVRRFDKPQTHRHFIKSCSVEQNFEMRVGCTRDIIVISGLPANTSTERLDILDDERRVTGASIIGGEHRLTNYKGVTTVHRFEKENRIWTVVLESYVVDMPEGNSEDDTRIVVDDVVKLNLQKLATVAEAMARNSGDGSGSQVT
In words: Yeast two hybrid, mandipropamid-promoted interaction of PYR1 variants with wild type HAB1. It is filed as cell-based. The source says: To engineer orthogonal mandipropamid responsiveness, we introduced the PYR1^! mutation into the PYR1^MANDI receptor to create a septuple mutant called PYR1^!-MANDI (PYR1^Y58H;K59R;V81I;F108A;S122G;F159L;T162D). This mutant interacts with HAB1^! and HAB^!-2 in response to low μM mandipropamid in yeast two-hybrid assays, but is ˜100-fold less sensitive than the PYR1^MANDI/HAB1 interaction, which responds to concentrations in the low nM range (FIG. 3).
To improve sensitivity, we mutagenized ligand contacting and interface residues in PYR1^!-MANDI using NNK primers, pooled the mutant libraries, and used the mutagenized receptors in selection experiments using to identify enhancer mutations. The NNK mutagenesis screen targeted the following residues: P55, H60, F61, I62, K63, V83, S85, G86, L87, P88, A89, S92, E94, I110, H115, R116, L117, Y120, E141, P148, G150, N151, D154, D155, T156, M158, A160, V163, V164, L166, N167, and K170. […] Since M158 and A160 flank the F159V mutation present in PYR1^MANDI, we inferred that the closely located orthogonalizing T162D mutation in PYR1^!-MANDI may have reduced mandipropamid sensitivity by altering the local structure of the C-terminal α3-helix, which participates in ligand-induced conformational changes needed for PP2C binding (Nishimura et al., 2009). […]

B1: PYR1*^-MANDI: PYR1 mutant with 9 mutations, most sensitive to mandipropamid (protein, listed as Arabidopsis thaliana)
chain: MPSELTPEERSELKNSIAEFHTYQLDPGSCSSLHAQRIHAPPELVWSIVRRFDKPQTHRHFIKSCSVEQNFEMRVGCTRDIIVISGLPANTSTERLDILDDERRVTGASIIGGEHRLTNYKGVTTVHRFEKENRIWTVVLESYVVDMPEGNSEDDTRIVVDDVVKLNLQKLATVAEAMARNSGDGSGSQVT
Turning to B1, the “fold less sensitivity to mandipropamid than the orthogonal interaction” value (FIG. 6) is reported as ~10 fold. In addition, where the note is “yeast two hybrid”, the “interaction with wild type HAB1” value was “weakly interacts”.
